Measurements as given in article PMC5389665.

Molecular target: TerL P74-26 nuclease domain (residues 256–485) (Thermus phage P74-26)
Assay: SEC

stoichiometry N: 2
Substance: TerL P74-26 nuclease domain (residues 256–485) (domain or fragment)
